Reference: patent US20230265458A1

Key:
[1] = target: human CD19 (hCD19, hCD19 variant 2), expressed on U87MG cells from the sRRVe-F4-hCD19 vector (human) (UniProt P15391); assay: cell-based or functional assay
[2] = target: truncated human CD19 (hCD19t, CD19t), 323 amino acids, 233 amino acids of the cytoplasmic domain removed (human) (UniProt P15391); assay: cell-based or functional assay

Work on “anti-CD19 CAR-T (chimeric antigen receptor against CD19 on T cells)” yielded a decrease in cell viability, WST-1 assay, E:T ratio 0.5:1, first day; U87MG cells transfected with sRRVgp-F4-DsRed/sRRVe-F4-hCD19 [1] of 54.9%, a decrease in cell viability, WST-1 assay, E:T ratio 1:1, within 1 day; U87MG cells transfected with sRRVgp-F4-DsRed/sRRVe-F4-hCD19 [1] of 25.8% and a decrease in cell viability, WST-1 assay, E:T ratio 0.5:1, first day; U87MG cells transfected with sRRVgp-F4-hCD19t/sRRVe-F4-TK [2] of 54.3%. The decrease in cell viability, WST-1 assay, E:T ratio 0.5:1, first day; U87MG cells transfected with sRRVgp-F4-yCD/sRRVe-F4-hCD19t [2] was 58.2%, the decrease in cell viability, WST-1 assay, E:T ratio 1:1, within 1 day; U87MG cells transfected with sRRVgp-F4-hCD19t/sRRVe-F4-TK [2] was 24.8% and the decrease in cell viability, WST-1 assay, E:T ratio 1:1, within 1 day; U87MG cells transfected with sRRVgp-F4-yCD/sRRVe-F4-hCD19t [2] was 20%.
